{"source": "patent EP4663654A1", "about": "(Hangzhou Sciwind Biosciences Co., Ltd., dated 2025)", "binders": {"B1": {"name": "polypeptide derivative M41 (peptide)", "peptide": "{C20 diacid-γGlu}-ASQLSTAATQRLADFLRHSSQQLKPILPPTNVGSNT[Hyp]-NH2", "SMILES": "CC[C@H](C)[C@H](NC(=O)[C@@H]1CCCN1C(=O)[C@H](CCCCN)NC(=O)[C@H](CC(C)C)NC(=O)[C@H](CCC(N)=O)NC(=O)[C@H](CCC(N)=O)NC(=O)[C@H](CO)NC(=O)[C@H](CO)NC(=O)[C@H](Cc1c[nH]cn1)NC(=O)[C@H](CCCNC(=N)N)NC(=O)[C@H](CC(C)C)NC(=O)[C@H](Cc1ccccc1)NC(=O)[C@H](CC(=O)O)NC(=O)[C@H](C)NC(=O)[C@H](CC(C)C)NC(=O)[C@H](CCCNC(=N)N)NC(=O)[C@H](CCC(N)=O)NC(=O)[C@@H](NC(=O)[C@H](C)NC(=O)[C@H](C)NC(=O)[C@@H](NC(=O)[C@H](CO)NC(=O)[C@H](CC(C)C)NC(=O)[C@H](CCC(N)=O)NC(=O)[C@H](CO)NC(=O)[C@H](C)NC(=O)CC[C@H](NC(=O)CCCCCCCCCCCCCCCCCCC(=O)O)C(=O)O)[C@@H](C)O)[C@@H](C)O)C(=O)N[C@@H](CC(C)C)C(=O)N1CCC[C@H]1C(=O)N1CCC[C@H]1C(=O)N[C@H](C(=O)N[C@@H](CC(N)=O)C(=O)N[C@H](C(=O)NCC(=O)N[C@@H](CO)C(=O)N[C@@H](CC(N)=O)C(=O)N[C@H](C(=O)N1C[C@H](O)C[C@H]1C(N)=O)[C@@H](C)O)C(C)C)[C@@H](C)O"}, "B2": {"name": "polypeptide derivative M44 (peptide)", "peptide": "{C20 diacid-γGlu}-ASQLSTAATQRLADFLRHSSN[NMeN]LKPILPPTNVGSNT[Hyp]-NH2", "SMILES": "CC[C@H](C)[C@H](NC(=O)[C@@H]1CCCN1C(=O)[C@H](CCCCN)NC(=O)[C@H](CC(C)C)NC(=O)[C@H](CC(N)=O)N(C)C(=O)[C@H](CC(N)=O)NC(=O)[C@H](CO)NC(=O)[C@H](CO)NC(=O)[C@H](Cc1c[nH]cn1)NC(=O)[C@H](CCCNC(=N)N)NC(=O)[C@H](CC(C)C)NC(=O)[C@H](Cc1ccccc1)NC(=O)[C@H](CC(=O)O)NC(=O)[C@H](C)NC(=O)[C@H](CC(C)C)NC(=O)[C@H](CCCNC(=N)N)NC(=O)[C@H](CCC(N)=O)NC(=O)[C@@H](NC(=O)[C@H](C)NC(=O)[C@H](C)NC(=O)[C@@H](NC(=O)[C@H](CO)NC(=O)[C@H](CC(C)C)NC(=O)[C@H](CCC(N)=O)NC(=O)[C@H](CO)NC(=O)[C@H](C)NC(=O)CC[C@H](NC(=O)CCCCCCCCCCCCCCCCCCC(=O)O)C(=O)O)[C@@H](C)O)[C@@H](C)O)C(=O)N[C@@H](CC(C)C)C(=O)N1CCC[C@H]1C(=O)N1CCC[C@H]1C(=O)N[C@H](C(=O)N[C@@H](CC(N)=O)C(=O)N[C@H](C(=O)NCC(=O)N[C@@H](CO)C(=O)N[C@@H](CC(N)=O)C(=O)N[C@H](C(=O)N1C[C@H](O)C[C@H]1C(N)=O)[C@@H](C)O)C(C)C)[C@@H](C)O"}, "B3": {"name": "polypeptide derivative M42 (peptide)", "peptide": "{C20 diacid-γGlu}-ASQLSTAATQRLADFLRHSSEELKPILPPTNVGSNT[Hyp]-NH2", "SMILES": "CC[C@H](C)[C@H](NC(=O)[C@@H]1CCCN1C(=O)[C@H](CCCCN)NC(=O)[C@H](CC(C)C)NC(=O)[C@H](CCC(=O)O)NC(=O)[C@H](CCC(=O)O)NC(=O)[C@H](CO)NC(=O)[C@H](CO)NC(=O)[C@H](Cc1c[nH]cn1)NC(=O)[C@H](CCCNC(=N)N)NC(=O)[C@H](CC(C)C)NC(=O)[C@H](Cc1ccccc1)NC(=O)[C@H](CC(=O)O)NC(=O)[C@H](C)NC(=O)[C@H](CC(C)C)NC(=O)[C@H](CCCNC(=N)N)NC(=O)[C@H](CCC(N)=O)NC(=O)[C@@H](NC(=O)[C@H](C)NC(=O)[C@H](C)NC(=O)[C@@H](NC(=O)[C@H](CO)NC(=O)[C@H](CC(C)C)NC(=O)[C@H](CCC(N)=O)NC(=O)[C@H](CO)NC(=O)[C@H](C)NC(=O)CC[C@H](NC(=O)CCCCCCCCCCCCCCCCCCC(=O)O)C(=O)O)[C@@H](C)O)[C@@H](C)O)C(=O)N[C@@H](CC(C)C)C(=O)N1CCC[C@H]1C(=O)N1CCC[C@H]1C(=O)N[C@H](C(=O)N[C@@H](CC(N)=O)C(=O)N[C@H](C(=O)NCC(=O)N[C@@H](CO)C(=O)N[C@@H](CC(N)=O)C(=O)N[C@H](C(=O)N1C[C@H](O)C[C@H]1C(N)=O)[C@@H](C)O)C(C)C)[C@@H](C)O"}, "B4": {"name": "polypeptide derivative M4 (peptide)", "peptide": "{C20 diacid-γGlu}-ASQLSTAVLGRLADFLRHFTDRDRDILPPTNVGSNTP-NH2", "SMILES": "CC[C@H](C)[C@H](NC(=O)[C@H](CC(=O)O)NC(=O)[C@H](CCCNC(=N)N)NC(=O)[C@H](CC(=O)O)NC(=O)[C@H](CCCNC(=N)N)NC(=O)[C@H](CC(=O)O)NC(=O)[C@@H](NC(=O)[C@H](Cc1ccccc1)NC(=O)[C@H](Cc1c[nH]cn1)NC(=O)[C@H](CCCNC(=N)N)NC(=O)[C@H](CC(C)C)NC(=O)[C@H](Cc1ccccc1)NC(=O)[C@H](CC(=O)O)NC(=O)[C@H](C)NC(=O)[C@H](CC(C)C)NC(=O)[C@H](CCCNC(=N)N)NC(=O)CNC(=O)[C@H](CC(C)C)NC(=O)[C@@H](NC(=O)[C@H](C)NC(=O)[C@@H](NC(=O)[C@H](CO)NC(=O)[C@H](CC(C)C)NC(=O)[C@H](CCC(N)=O)NC(=O)[C@H](CO)NC(=O)[C@H](C)NC(=O)CC[C@H](NC(=O)CCCCCCCCCCCCCCCCCCC(=O)O)C(=O)O)[C@@H](C)O)C(C)C)[C@@H](C)O)C(=O)N[C@@H](CC(C)C)C(=O)N1CCC[C@H]1C(=O)N1CCC[C@H]1C(=O)N[C@H](C(=O)N[C@@H](CC(N)=O)C(=O)N[C@H](C(=O)NCC(=O)N[C@@H](CO)C(=O)N[C@@H](CC(N)=O)C(=O)N[C@H](C(=O)N1CCC[C@H]1C(N)=O)[C@@H](C)O)C(C)C)[C@@H](C)O"}, "B5": {"name": "polypeptide derivative M43 (peptide)", "peptide": "{C20 diacid-γGlu}-ASQLSTAATQRLADFLRHSSSSLKPILPPTNVGSNT[Hyp]-NH2", "SMILES": "CC[C@H](C)[C@H](NC(=O)[C@@H]1CCCN1C(=O)[C@H](CCCCN)NC(=O)[C@H](CC(C)C)NC(=O)[C@H](CO)NC(=O)[C@H](CO)NC(=O)[C@H](CO)NC(=O)[C@H](CO)NC(=O)[C@H](Cc1c[nH]cn1)NC(=O)[C@H](CCCNC(=N)N)NC(=O)[C@H](CC(C)C)NC(=O)[C@H](Cc1ccccc1)NC(=O)[C@H](CC(=O)O)NC(=O)[C@H](C)NC(=O)[C@H](CC(C)C)NC(=O)[C@H](CCCNC(=N)N)NC(=O)[C@H](CCC(N)=O)NC(=O)[C@@H](NC(=O)[C@H](C)NC(=O)[C@H](C)NC(=O)[C@@H](NC(=O)[C@H](CO)NC(=O)[C@H](CC(C)C)NC(=O)[C@H](CCC(N)=O)NC(=O)[C@H](CO)NC(=O)[C@H](C)NC(=O)CC[C@H](NC(=O)CCCCCCCCCCCCCCCCCCC(=O)O)C(=O)O)[C@@H](C)O)[C@@H](C)O)C(=O)N[C@@H](CC(C)C)C(=O)N1CCC[C@H]1C(=O)N1CCC[C@H]1C(=O)N[C@H](C(=O)N[C@@H](CC(N)=O)C(=O)N[C@H](C(=O)NCC(=O)N[C@@H](CO)C(=O)N[C@@H](CC(N)=O)C(=O)N[C@H](C(=O)N1C[C@H](O)C[C@H]1C(N)=O)[C@@H](C)O)C(C)C)[C@@H](C)O"}}, "note": "Starred links: 1 amine or outer side, 2 acyl side, 3 side chain; linkers in the order of their positions; H or OH if unused. Non-standard residues stand in square brackets, D forms with d. *: point of attachment. C20 diacid = O=C(O)CCCCCCCCCCCCCCCCCCC(=O)*; γGlu = O=C(O)[C@H](CCC(=O)[*:2])N[*:1]; Hyp = O=C(O)[C@@H]1C[C@@H](O)CN1; NMeN = CN[C@@H](CC(N)=O)C(=O)O"}
{"target": "T1, human amylin receptor (AMY3) on CHO-K1/Ga15/AMY3 amylin receptor/CRE-luc cells (human, UniProt P30988 25-474; O60896 24-148)", "T1 sequence (looked up) 1": "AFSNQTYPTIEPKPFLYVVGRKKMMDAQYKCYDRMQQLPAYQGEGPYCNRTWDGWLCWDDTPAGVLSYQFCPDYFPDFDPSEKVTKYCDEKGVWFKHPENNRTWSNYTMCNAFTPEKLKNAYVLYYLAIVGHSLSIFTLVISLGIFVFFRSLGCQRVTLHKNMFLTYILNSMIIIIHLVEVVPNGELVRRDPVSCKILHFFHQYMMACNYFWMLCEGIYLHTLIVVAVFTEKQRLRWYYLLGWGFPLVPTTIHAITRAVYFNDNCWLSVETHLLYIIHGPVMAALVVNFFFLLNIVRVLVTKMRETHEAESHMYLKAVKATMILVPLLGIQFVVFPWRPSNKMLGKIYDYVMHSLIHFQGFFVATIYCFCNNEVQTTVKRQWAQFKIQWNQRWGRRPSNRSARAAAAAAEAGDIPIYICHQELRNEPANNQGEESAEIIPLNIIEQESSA", "T1 sequence (looked up) 2": "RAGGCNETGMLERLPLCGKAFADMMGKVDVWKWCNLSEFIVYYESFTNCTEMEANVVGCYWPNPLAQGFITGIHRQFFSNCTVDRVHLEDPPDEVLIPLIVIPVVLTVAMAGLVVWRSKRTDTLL", "assay": "cell-based or functional assay", "units": {"EC50/nM, CRE-luciferase reporter in amylin receptor/CRE-luc CHO cells": "nM", "Relative activity (the EC50 ratio of Cagrilintide to the compound)": "%"}}
{"binder": "B1", "EC50/nM, CRE-luciferase reporter in amylin receptor/CRE-luc CHO cells": 0.08, "Relative activity (the EC50 ratio of Cagrilintide to the compound)": 113}
{"binder": "B2", "EC50/nM, CRE-luciferase reporter in amylin receptor/CRE-luc CHO cells": 0.1, "Relative activity (the EC50 ratio of Cagrilintide to the compound)": 130}
{"binder": "B3", "EC50/nM, CRE-luciferase reporter in amylin receptor/CRE-luc CHO cells": 0.28, "Relative activity (the EC50 ratio of Cagrilintide to the compound)": 32}
{"binder": "B4", "EC50/nM, CRE-luciferase reporter in amylin receptor/CRE-luc CHO cells": 0.081, "Relative activity (the EC50 ratio of Cagrilintide to the compound)": 32}
{"binder": "B5", "EC50/nM, CRE-luciferase reporter in amylin receptor/CRE-luc CHO cells": 0.05, "Relative activity (the EC50 ratio of Cagrilintide to the compound)": 180}
